Assay results from publication PMC546141.

T1: mPrrp-2xRBD (mouse, UniProt Q9JII5 1-201)
T1 sequence: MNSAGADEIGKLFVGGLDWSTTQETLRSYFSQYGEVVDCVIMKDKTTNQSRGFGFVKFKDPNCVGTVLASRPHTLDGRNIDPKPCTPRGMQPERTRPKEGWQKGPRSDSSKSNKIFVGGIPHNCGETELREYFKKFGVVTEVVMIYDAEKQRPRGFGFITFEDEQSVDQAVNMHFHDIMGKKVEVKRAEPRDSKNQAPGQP


Biological target: T1, mPrrp-2xRBD
Assay: EMSA

| Binder | Kd [nM] |
| --- | --- |
| S-13 26-73 U52C (structured_RNA) RNA: GGCAUAGCCAAAUAGUUUGUGGCCUUAGCUUAGUAUAGCUGCGGGCUAUGGGAUC | ~55 |
| S-13 26-73 U53C (structured_RNA) RNA: GGCAUAGCCAAAUAGUUUGUGGCCUUAGUCUAGUAUAGCUGCGGGCUAUGGGAUC | ~75 |
